The term Kd denotes the concentration at which binding is half-saturated. Low readings indicate a tighter complex, high ones a looser complex.

Assay [1] has as its target human Fc gamma receptor 1A (human) (UniProt P12314). The experiment in a line: SPR (Biacore T200), antibody amine-coupled on CM5 (~950 RU), FcγR1A as analyte. In general terms: In SPR one partner is held on a chip, and binding of the other changes the refractive index at the surface.
The target in assay [2] is CD3-Fc. The experiment in a line: SPR (Biacore T200, 25 C), CD3-Fc captured on anti-hFc CM5 chip, antibody as analyte, 1:1 model.

Sequence of UniProt P12314 (P12314 16-288 limits assumed): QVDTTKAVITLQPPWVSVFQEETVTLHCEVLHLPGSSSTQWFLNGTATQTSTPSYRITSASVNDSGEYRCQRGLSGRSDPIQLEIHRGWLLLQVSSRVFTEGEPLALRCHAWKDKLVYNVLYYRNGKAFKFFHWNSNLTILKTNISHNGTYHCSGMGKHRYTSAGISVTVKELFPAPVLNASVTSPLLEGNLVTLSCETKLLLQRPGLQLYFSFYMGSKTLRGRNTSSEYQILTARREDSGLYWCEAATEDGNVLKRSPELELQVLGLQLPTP

In assay [1], “Anti-CD3 DANAPA-IgG1 (D265A/N297A/P329A) (antibody)” showed a Maximum response at 100 nM hFcgammaRIA (RU) of 11 RU. On to “Anti-CD3 DAPASK-IgG1 (D265A/P329A/S267K) (antibody)”, for which the Maximum response at 100 nM hFcgammaRIA (RU) in assay [1] was found to be 13 RU.

In assay [1], “Anti-CD3 GADAPA-IgG1 (G237A/D265A/P329A) (antibody)” displayed a Maximum response at 100 nM hFcgammaRIA (RU) of 16 RU. “Anti-CD3 GADAPASK-IgG1 (G237A/D265A/P329A/S267K) (antibody)” showed a Maximum response at 100 nM hFcgammaRIA (RU) in assay [1] of 10 RU. On the same count and under the same terms, then “Anti-CD3 LALAGA-IgG1 (L234A/L235A/G237A) (antibody)”, with 15 RU; and “Anti-CD3 LALAPG-IgG1 (L234A/L235A/P329G) (antibody)”, with 18 RU. The molecule “Anti-CD3 LALASKPA-IgG1 (L234A/L235A/S267K/P329A) (antibody)” came in with a Maximum response at 100 nM hFcgammaRIA (RU) in assay [1] of 9 RU.

B1: anti-CD3 antibody CD3hi (mAb) (antibody, V domains shown)
VH: EVQLVESGGGLVQPGGSLKLSCAASGFTFNTYAMNWVRQASGKGLEWVGRIRSKYNNYATYYADSVKDRFTISRDDSKSTLYLQMNSLKTEDTAVYYCVRHGNFGNSYVSWFAYWGQGTLVTVSS
VL: QAVVTQEPSLTVSPGGTVTLTCRSSTGAVTTSNYANWVQQKPGQAPRGLIGGTNKRAPWTPARFSGSLLGDKAALTLSGAQPEDEAEYFCALWYSNLWVFGGGTKLTVL
B1 had a dissociation constant Kd in assay [2] of 16 nM.

B2: anti-CD3 antibody CD3lo (mAb) (antibody, V domains shown)
VH: EVQLVESGGGLVQPGGSLKLSCAASGFTFNTYAMNWVRQASGKGLEWVGRIRSKYNNYATYYADSVKDRFTISRDDSKSTAYLQMNSLKTEDTAVYYCVRHGNFGNSYVSWFAYWGQGTLVTVSS
VL: QAVVTQEPSLTVSPGGTVTLTCRSSTGAVTTSNYANWVQQKPGQAPRGLIGGTNKRAPWTPARFSGSLLGDKAALTLSGAQPEDEAEYFCALWYSNLWVFGGGTKLTVL
On to B2, for which the dissociation constant Kd in assay [2] was 48 nM.

B3: anti-CD3 antibody CD3med (mAb) (antibody, V domains shown)
VH: EVQLVESGGGLVQPGGSLKLSCAASGFTFNTYAMNWVRQASGKGLEWVGRIRSKYNNYATYYADSVKDRFTISRDDSKNTAYLQMNSLKTEDTAVYYCVRHGNFGNSYVSWFAHWGQGTLVTVSS
VL: QAVVTQEPSLTVSPGGTVTLTCGSSTGAVTSSNYANWVQQKPGQAPRGLIGGTNKRAPWTPARFSGSLLGGKAALTLSGAQPEDEAEYYCALWYSNLWVFGGGTKLTVL
Molecule B3 gave a dissociation constant Kd in assay [2] of 30 nM.
